In article PMC5098445 (mAbs, 2016):
Positions count from the first letter of the chain named.

B1: scFv of AK18 (IGF-1R-binding region) (scFv, V domains shown)
VH: QVELVESGGGVVQPGRSQRLSCAASGFTFSSYGMHWVRQAPGKGLEWVAIIWFDGSSTYYADSVRGRFTISRDNSKNTLYLQMNSLRAEDTAVYFCARELGRRYFDLWGRGTLVSVSS
VL: EIVLTQSPATLSLSPGERATLSCRASQSVSSYLAWYQQKPGQAPRLLIYDASKRATGIPARFSGSGSGTDFTLTISSLEPEDFAVYYCQQRSKWPPWTFGQGTKVESK
B2: scFv of F13B5 (IGF-1R-binding region) (scFv, V domains shown)
VH: B1 VH
VL: B1 VL with D50Q, W94Y

Molecular target: human insulin-like growth factor 1 receptor (Homo sapiens, UniProt P08069)
Sequence (P08069 31-1367): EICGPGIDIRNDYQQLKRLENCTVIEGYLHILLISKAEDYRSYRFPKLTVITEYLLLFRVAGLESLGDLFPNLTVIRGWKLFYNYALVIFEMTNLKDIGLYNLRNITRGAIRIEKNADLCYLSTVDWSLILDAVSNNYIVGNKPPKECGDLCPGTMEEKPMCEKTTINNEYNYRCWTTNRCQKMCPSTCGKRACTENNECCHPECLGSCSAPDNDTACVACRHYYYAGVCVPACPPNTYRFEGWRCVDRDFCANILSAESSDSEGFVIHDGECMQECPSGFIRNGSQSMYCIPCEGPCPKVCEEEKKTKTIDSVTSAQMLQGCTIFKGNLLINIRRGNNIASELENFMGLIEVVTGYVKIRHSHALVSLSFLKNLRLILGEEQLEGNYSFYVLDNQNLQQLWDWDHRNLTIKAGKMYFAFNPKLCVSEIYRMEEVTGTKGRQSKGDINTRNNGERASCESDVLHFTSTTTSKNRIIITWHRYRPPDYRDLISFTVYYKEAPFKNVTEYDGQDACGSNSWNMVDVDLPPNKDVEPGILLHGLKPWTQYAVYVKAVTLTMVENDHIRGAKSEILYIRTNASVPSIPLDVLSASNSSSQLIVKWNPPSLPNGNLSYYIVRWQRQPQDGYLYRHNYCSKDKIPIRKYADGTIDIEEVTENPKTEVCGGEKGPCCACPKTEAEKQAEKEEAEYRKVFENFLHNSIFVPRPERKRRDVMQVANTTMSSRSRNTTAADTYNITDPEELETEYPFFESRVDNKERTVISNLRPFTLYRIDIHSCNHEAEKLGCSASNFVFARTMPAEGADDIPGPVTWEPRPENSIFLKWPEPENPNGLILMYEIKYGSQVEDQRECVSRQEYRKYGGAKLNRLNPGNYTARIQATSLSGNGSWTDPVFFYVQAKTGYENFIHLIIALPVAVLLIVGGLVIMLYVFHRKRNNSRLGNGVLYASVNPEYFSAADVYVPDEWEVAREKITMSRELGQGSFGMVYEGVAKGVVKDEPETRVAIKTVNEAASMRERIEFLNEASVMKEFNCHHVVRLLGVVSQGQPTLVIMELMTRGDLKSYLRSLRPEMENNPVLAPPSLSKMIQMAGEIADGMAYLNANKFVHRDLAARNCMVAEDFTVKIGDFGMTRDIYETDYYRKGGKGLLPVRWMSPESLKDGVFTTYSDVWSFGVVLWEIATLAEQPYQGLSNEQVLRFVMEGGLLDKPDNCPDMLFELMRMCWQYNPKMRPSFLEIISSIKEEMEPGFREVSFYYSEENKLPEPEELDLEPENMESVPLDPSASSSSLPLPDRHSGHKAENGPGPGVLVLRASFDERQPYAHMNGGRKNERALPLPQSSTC
Test: SPR

Binder	binding result
B1	binds
B2	binds
